Patent US20210261648A1 (published 2021)
Changes are numbered by the printed parent chain. Names may count otherwise.

T1: FcγRIIb extracellular domain with C-terminal His tag (human, UniProt P31994 43-217)
T1 construct: extracellular domain; For crystallography it was expressed with kifunensine and trimmed with Endo F1; also called FcgRIIb; FcγRIIb extracellular region; not shown: His tag attached to the C terminus
T1 sequence (looked up): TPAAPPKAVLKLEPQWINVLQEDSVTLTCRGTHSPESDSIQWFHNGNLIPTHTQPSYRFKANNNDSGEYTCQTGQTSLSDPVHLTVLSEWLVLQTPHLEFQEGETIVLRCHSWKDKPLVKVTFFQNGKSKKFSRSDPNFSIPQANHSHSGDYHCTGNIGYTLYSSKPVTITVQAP

T2: FcγRIIa type R extracellular domain with C-terminal His tag (human, UniProt P12318 34-217)
T2 chain: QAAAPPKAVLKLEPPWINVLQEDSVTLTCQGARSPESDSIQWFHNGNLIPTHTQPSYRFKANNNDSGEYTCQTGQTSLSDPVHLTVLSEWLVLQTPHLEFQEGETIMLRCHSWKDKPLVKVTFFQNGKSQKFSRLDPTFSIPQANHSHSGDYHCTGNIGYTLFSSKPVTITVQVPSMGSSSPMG

T3: FcγRIIa type H extracellular domain with C-terminal His tag (human, UniProt P12318 34-217)
T3 construct: extracellular domain; also called FcγRIIaH; FcgRIIaH; not shown: His tag attached to the C terminus
T3 sequence (looked up): T2 chain with R134H

B1: IL6R-F652/IL6R-L (antibody, human IgG1, kappa)
heavy: QVQLQESGPGLVKPSETLSLTCAVSGHSISHDHAWSWVRQPPGEGLEWIGFISYSGITNYNPSLQGRVTISRDNSKNTLYLQMNSLRAEDTAVYYCARSLARTTAMDYWGEGTLVTVSSASTKGPSVFPLAPSSKSTSGGTAALGCLVKDYFPEPVTVSWNSGALTSGVHTFPAVLQSSGLYSLSSVVTVPSSSLGTQTYICNVNHKPSNTKVDKKVEPKSCDKTHTCPPCPAPELLGGDSVFLFPPKPKDTLYISRTPEVTCVVVDVSHEDPEVKFNWYVDGVEVHNAKTKPREEQYNSTYRVVSVLTVLHQDWLNGKEYKCKVSNKALPAPIEKTISKAKGQPREPQVYTLPPSRDELTKNQVSLTCLVKGFYPSDIAVEWESNGQPENNYKTTPPVLDSDGSFFLYSKLTVDKSRWQQGNVFSCSVMHEALHYHYTQKSLSLSP
light: not shown
notes: IL6R-F11 (IL6R-G1d with M252Y/N434Y) with P238D
B2: IL6R-BP112/IL6R-L (antibody, human IgG1, kappa)
heavy: B1 heavy with Y254M, P273G, Y436N, K441E
light: not shown
notes: Alterations introduced into IL6R-B3
B3: IL6R-PD094/IL6R-L (antibody, human IgG1, kappa)
heavy: B1 heavy with G239W
light: not shown
notes: PD variant; alterations introduced into IL6R-F11
B4: IL6R-BP126/IL6R-L (antibody, human IgG1, kappa)
heavy: B1 heavy with Y254M, K328L, Y436N, K441E
light: not shown
notes: as for B2
B5: IL6R-PD079/IL6R-L (antibody, human IgG1, kappa)
heavy: B1 heavy with G239A
light: not shown
notes: as for B3
B6: IL6R-BP912/IL6R-L (antibody, human IgG1, kappa)
heavy: B1 heavy with Y254M, A332R, Y436N, K441E
light: not shown
notes: as for B2
B7: IL6R-PD043/IL6R-L (antibody, human IgG1, kappa)
heavy: B1 heavy with L236Y
light: not shown
notes: as for B3
B8: IL6R-BP106/IL6R-L (antibody, human IgG1, kappa)
heavy: B1 heavy with Y254M, H270D, Y436N, K441E
light: not shown
notes: as for B2
B9: IL6R-BP107/IL6R-L (antibody, human IgG1, kappa)
heavy: B1 heavy with Y254M, H270E, Y436N, K441E
light: not shown
notes: as for B2
B10: IL6R-PD080/IL6R-L (antibody, human IgG1, kappa)
heavy: B1 heavy with G239D
light: not shown
notes: as for B3
B11: IL6R-BP118/IL6R-L (antibody, human IgG1, kappa)
heavy: B1 heavy with Y254M, K328S, Y436N, K441E
light: not shown
notes: as for B2
B12: IL6R-BP911/IL6R-L (antibody, human IgG1, kappa)
heavy: B1 heavy with Y254M, A332K, Y436N, K441E
light: not shown
notes: as for B2
B13: IL6R-PD097/IL6R-L (antibody, human IgG1, kappa)
heavy: B1 heavy with S241D
light: not shown
notes: as for B3
B14: IL6R-PD095/IL6R-L (antibody, human IgG1, kappa)
heavy: B1 heavy with G239Y
light: not shown
notes: as for B3
B15: IL6R-BP142/IL6R-L (antibody, human IgG1, kappa)
heavy: B1 heavy with Y254M, K328N, Y436N, K441E
light: not shown
notes: as for B2
B16: IL6R-BP119/IL6R-L (antibody, human IgG1, kappa)
heavy: B1 heavy with Y254M, K328M, Y436N, K441E
light: not shown
notes: as for B2
B17: IL6R-PD082/IL6R-L (antibody, human IgG1, kappa)
heavy: B1 heavy with G239F
light: not shown
notes: as for B3
B18: IL6R-BP121/IL6R-L (antibody, human IgG1, kappa)
heavy: B1 heavy with Y254M, K328Q, Y436N, K441E
light: not shown
notes: as for B2
B19: IL6R-PD086/IL6R-L (antibody, human IgG1, kappa)
heavy: B1 heavy with G239L
light: not shown
notes: as for B3
B20: IL6R-PD087/IL6R-L (antibody, human IgG1, kappa)
heavy: B1 heavy with G239M
light: not shown
notes: as for B3
B21: IL6R-PD081/IL6R-L (antibody, human IgG1, kappa)
heavy: B1 heavy with G239E
light: not shown
notes: as for B3
B22: IL6R-BP117/IL6R-L (antibody, human IgG1, kappa)
heavy: B1 heavy with Y254M, K328D, Y436N, K441E
light: not shown
notes: as for B2
B23: IL6R-BP136/IL6R-L (antibody, human IgG1, kappa)
heavy: B1 heavy with Y254M, K328A, Y436N, K441E
light: not shown
notes: as for B2
B24: IL6R-BP116/IL6R-L (antibody, human IgG1, kappa)
heavy: B1 heavy with Y254M, K328T, Y436N, K441E
light: not shown
notes: as for B2
B25: IL6R-BP110/IL6R-L (antibody, human IgG1, kappa)
heavy: B1 heavy with Y254M, H270N, Y436N, K441E
light: not shown
notes: as for B2

Assays:
[1] = target: T1, FcγRIIb extracellular domain with …; assay: SPR binding amount, relative to IL6R-F652/IL6R-L
[2] = target: T2, FcγRIIa type R extracellular domain …; assay: SPR binding amount, relative to IL6R-F652/IL6R-L
[3] = target: T4, FcγRIa extracellular domain with C-terminal His tag (human, UniProt P12314 16-292); assay: SPR binding amount, relative to IL6R-BF648/IL6R-L
T4 construct: also called FcgRIa; not shown: His tag attached to the C terminus
T4 sequence (P12314 16-292): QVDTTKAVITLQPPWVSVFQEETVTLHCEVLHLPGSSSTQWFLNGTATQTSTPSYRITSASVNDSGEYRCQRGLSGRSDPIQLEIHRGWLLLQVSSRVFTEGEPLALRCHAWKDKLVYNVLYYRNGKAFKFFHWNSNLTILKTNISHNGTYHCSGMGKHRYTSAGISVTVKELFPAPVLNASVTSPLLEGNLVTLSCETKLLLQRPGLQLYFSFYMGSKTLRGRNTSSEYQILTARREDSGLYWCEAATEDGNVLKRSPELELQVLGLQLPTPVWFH

[4] = target: T3, FcγRIIa type H extracellular domain …; assay: SPR binding amount, relative to IL6R-BF648/IL6R-L
[5] = target: T1, FcγRIIb extracellular domain with …; assay: SPR binding amount, relative to IL6R-BF648/IL6R-L

Binder | relative binding activity to FcγRIIb (IL6R-F652/IL6R-L = 100) [1] | relative binding activity to FcγRIIaR (IL6R-F652/IL6R-L = 100) [2] | relative binding activity (IL6R-BF648/IL6R-L = 100) [3] | relative binding activity (IL6R-BF648/IL6R-L = 100) [4] | relative binding activity (IL6R-BF648/IL6R-L = 100) [5]
B1 | 100 | 100 | – | – | –
B2 | – | – | 119 | 113 | 157
B3 | 122 | 593 | – | – | –
B4 | – | – | 113 | 132 | 103
B5 | 101 | 138 | – | – | –
B6 | – | – | 60 | 93 | 103
B7 | 112 | 175 | – | – | –
B8 | – | – | 127 | 110 | 116
B9 | – | – | 123 | 114 | 118
B10 | 127 | 222 | – | – | –
B11 | – | – | 101 | 128 | 104
B12 | – | – | 52 | 108 | 119
B13 | 139 | 844 | – | – | –
B14 | 124 | 543 | – | – | –
B15 | – | – | 98 | 97 | 106
B16 | – | – | 117 | 133 | 110
B17 | 108 | 380 | – | – | –
B18 | – | – | 118 | 135 | 113
B19 | 112 | 268 | – | – | –
B20 | 109 | 196 | – | – | –
B21 | 101 | 117 | – | – | –
B22 | – | – | 124 | 96 | 118
B23 | – | – | 117 | 103 | 119
B24 | – | – | 110 | 110 | 108
B25 | – | – | 105 | 127 | 101
